Residue numbers refer to the chain shown, from its start. Names may count otherwise.
B1: 5.948.1 (recombinant) (antibody, human IgG2, kappa, V domains shown)
VH: QVQLVQSGAEVKKPGASVKVSCKASGYTFTSYDINWVRQATGQGLEWMGWMDPNSGNTGYAQKFQGRVTMTRNTSISTAYMELSSLRSEDTAVYYCARGHYDSDGYYSFSGMDVWGQGTTVTVSS
VL: not shown
notes: Human IgG2 kappa; leader omitted; Two batches were tested in some assays; also called recombinant 5.948.1; 5.948.1 - Batch 1 (762.8 µg/mL)
B2: 5.948.1 Hc-H100Y (antibody, human IgG2, kappa, V domains shown)
VH: B1 VH with H100Y
VL: not shown
notes: Human IgG2 kappa; leader omitted; also called 5.948.1 (H100Y); 5.948.1 H100Y

Experiments:
[1] = target: T1, cynomolgus monkey IgE (in cynomolgus serum, Harlan Sera-Lab Ltd) (cynomolgus monkey); test: capture ELISA, Test 2, Cyno 1
T1 construct: Serum was the source of IgE; eight serum samples; also called cynomolgus IgE; Cyno 1 to Cyno 8 serum samples
Protocol: (§1) Wells were washed once with 150 μL/well wash buffer (0.05% Tween-20, Sigma, Cat. No. P7949/TBS) then blocked with 150 μL/well 1% BSA (Sigma, Cat. No. A7030) in TBS for 2 hours at room temperature. Wells were washed twice with 150 μL wash buffer. 50 μL human (in-house donors) or cynomolgus serum (Harlan Sera-Lab Ltd, Loughborough) was added from neat to at least 1:16 dilution in 1% BSA/0.05% Tween-20/TBS diluent buffer. […] Wells were incubated for 2 hours at 25° C. before washing (3×150 μL wash buffer). […] Wells were incubated for 1 hour at 25° C. then washed (3×150 μL wash buffer). Streptavidin-HRP (Amersham Bioscience, Cat. No. RPN 1231) diluted 1:1000 in diluent buffer was added to all wells and incubated for 45 minutes at room temperature. Wells were washed (3×150 […] wash buffer). 50 μL OPD (Dako, Cat. No. S2045) was added to all wells and the color allowed to develop for 10 minutes before stopping the reaction with 50 μl 0.6M H₂SO₄ and the absorbance measured at 490 nm.

[2] = target: T2, free IgE in human serum (healthy volunteers, in-house donors) (human, UniProt P01854-1 1-428); test: serum free IgE depletion ELISA; DIN 0451 experiment 1
T2 construct: Kept apart from the bought myeloma IgE because it is native serum IgE of single donors; also called serum IgE
T2 sequence (P01854 other isoform, or with tags, fused parts or gaps): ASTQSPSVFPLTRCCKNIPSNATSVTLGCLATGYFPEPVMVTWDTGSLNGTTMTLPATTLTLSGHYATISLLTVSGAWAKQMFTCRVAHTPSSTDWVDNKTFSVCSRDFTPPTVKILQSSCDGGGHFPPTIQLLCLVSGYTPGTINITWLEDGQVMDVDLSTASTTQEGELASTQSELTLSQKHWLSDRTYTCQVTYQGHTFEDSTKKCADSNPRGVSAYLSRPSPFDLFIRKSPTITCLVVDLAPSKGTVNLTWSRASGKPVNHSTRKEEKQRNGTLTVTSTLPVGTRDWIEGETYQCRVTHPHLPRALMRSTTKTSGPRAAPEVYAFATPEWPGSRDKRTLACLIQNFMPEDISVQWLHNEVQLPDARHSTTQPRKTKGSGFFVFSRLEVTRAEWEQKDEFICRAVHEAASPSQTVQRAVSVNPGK
Protocol: (§2) The next day ELISA plates were washed 1× with 300 μL/well wash buffer (0.05% Tween-20, Sigma, Cat. No. P7949/TBS) then blocked with 150 μL/well 1% BSA (Sigma, Cat. No. A7030) in TBS for 1 hour at room temperature.

[3] = target: T1, cynomolgus monkey IgE (in cynomolgus …); test: capture ELISA, Test 2, Cyno 8
Protocol: as §1

[4] = target: T1, cynomolgus monkey IgE (in cynomolgus …); test: capture ELISA, Test 2, Cyno 2
Protocol: as §1

[5] = target: T1, cynomolgus monkey IgE (in cynomolgus …); test: capture ELISA, Test 1, Cyno 7
Protocol: as §1

[6] = target: T2, free IgE in human serum (healthy …); test: capture ELISA, Test 1, human serum
Protocol: as §1

[7] = target: T1, cynomolgus monkey IgE (in cynomolgus …); test: capture ELISA, Test 2, Cyno 5
Protocol: as §1

[8] = target: T2, free IgE in human serum (healthy …); test: serum free IgE depletion ELISA; DIN 0451 experiment 2
Protocol: as §2

[9] = target: T2, free IgE in human serum (healthy …); test: serum free IgE depletion ELISA; DIN 0623 experiment 2
Protocol: as §2

[10] = target: T1, cynomolgus monkey IgE (in cynomolgus …); test: capture ELISA, Test 1, Cyno 1
Protocol: as §1

[11] = target: T1, cynomolgus monkey IgE (in cynomolgus …); test: capture ELISA, Test 2, Cyno 7
Protocol: as §1

[12] = target: T2, free IgE in human serum (healthy …); test: serum free IgE depletion ELISA; DIN 0155
Protocol: as §2

[13] = target: T2, free IgE in human serum (healthy …); test: serum free IgE depletion ELISA; DIN 0347
Protocol: as §2

[14] = target: T1, cynomolgus monkey IgE (in cynomolgus …); test: capture ELISA, Test 2, Cyno 3
Protocol: as §1

[15] = target: T2, free IgE in human serum (healthy …); test: serum free IgE depletion ELISA; DIN 0382
Protocol: as §2

[16] = target: T1, cynomolgus monkey IgE (in cynomolgus …); test: capture ELISA, Test 2, Cyno 4
Protocol: as §1

[17] = target: T3, human IgE (Human myeloma, azide free, Serotec, Cat. No. PHP008X2) (human, UniProt P01854 1-546); test: inhibition of IgE binding to RBL-2H3 (FcεR1) cells
T3 construct: mature; Bought full length human myeloma IgE; in the BIAcore kinetics Serotec PHP008X2 or Europa Bioproducts CP1035K was used; also called full length human IgE; human immunoglobulin E
T3 sequence (P01854 whole entry): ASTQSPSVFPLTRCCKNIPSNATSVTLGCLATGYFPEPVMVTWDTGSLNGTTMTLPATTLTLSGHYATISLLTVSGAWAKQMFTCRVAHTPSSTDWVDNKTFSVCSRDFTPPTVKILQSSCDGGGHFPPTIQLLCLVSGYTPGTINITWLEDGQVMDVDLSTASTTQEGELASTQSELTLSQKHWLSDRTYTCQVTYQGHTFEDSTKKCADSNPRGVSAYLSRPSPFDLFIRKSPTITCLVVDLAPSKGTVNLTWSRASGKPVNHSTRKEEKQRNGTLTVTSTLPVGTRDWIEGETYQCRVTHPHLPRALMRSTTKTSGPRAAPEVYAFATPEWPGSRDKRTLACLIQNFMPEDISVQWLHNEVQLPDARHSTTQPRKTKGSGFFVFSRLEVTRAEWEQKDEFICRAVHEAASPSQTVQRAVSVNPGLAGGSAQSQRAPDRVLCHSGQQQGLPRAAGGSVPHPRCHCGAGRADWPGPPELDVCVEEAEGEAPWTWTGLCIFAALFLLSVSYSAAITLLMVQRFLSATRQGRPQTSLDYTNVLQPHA
Protocol: RBL-2H3 (FcεR1) cells were cultured in MEM-Earles (Invitrogen Cat. No. 2109002) supplemented with 2 mM L-Glutamine (Sigma, Cat. No. G7513), 1 mg/mL Geneticin Liquid (Invitrogen Cat. No. 10131027) and 15% FBS (PAA Laboratories GmbH, Cat. No. A15-043). RBL-2H3 (FcεR1) cells were seeded into sterile 96-well plates (Costar, Fisher Scientific, Cat. No. TKY-521-090S) at 1×10⁵ cells/well and cultured overnight at 37° C., 5% CO₂ in a humidified atmosphere. The next day cells were washed 3× with 150 μL/well wash buffer (10% BSA, Sigma Cat. No A7030, in PBS, Sigma, Cat. No D8537). […] Cells were washed 3× with 150 μL/well wash buffer and then incubated with 50 μL/well streptavidin-HRP (Amersham Bioscience, Cat. No. RPN 1231) diluted 1:250, for 45 minutes. Cells were washed 3× with 150 μL/well wash buffer. 50 μL OPD (Dako, Cat. No. S2045) was added to all wells and the colour allowed to develop for 10 minutes before stopping the reaction with 50 μL 0.6M H₂SO₄ and the absorbance measured at 490 nm.

[18] = target: T2, free IgE in human serum (healthy …); test: serum free IgE depletion ELISA; DIN 0649
Protocol: as §2

[19] = target: T1, cynomolgus monkey IgE (in cynomolgus …); test: capture ELISA, Test 1, Cyno 4
Protocol: as §1

Binder	IgE concentration detected [1] [ng/mL]	IC25 ng/mL [2] [µg/mL]	IgE concentration detected [3] [ng/mL]	IgE concentration detected [4] [ng/mL]	IgE concentration detected [5] [ng/mL]	IgE concentration detected [6] [ng/mL]	IgE concentration detected [7] [ng/mL]	IC25 ng/mL [8] [µg/mL]	IC25 ng/mL [9] [µg/mL]	IgE concentration detected [10] [ng/mL]	IgE concentration detected [11] [ng/mL]	IC25 ng/mL [12] [µg/mL]	IC25 ng/mL [13] [µg/mL]	IgE concentration detected [14] [ng/mL]	IC25 ng/mL [15] [µg/mL]	IgE concentration detected [16] [ng/mL]	IC50 [17] [µg/mL]	IC25 ng/mL [18] [µg/mL]	IgE concentration detected [19] [ng/mL]
B1	289	11.6	56	328	8	468	630	39.7	4.13	481	0	1.81	4.92	309	25	38	< 0.5	1.95	39
B2	170	–	36	199	–	–	420	10.5	0.76	–	0	0.34	1.33	178	–	25	< 0.5	0.39	–
